For experiment [1], the target named is T1, AF9 YEATS domain (1-138) (human, UniProt P42568 1-138).
T1 sequence (looked up): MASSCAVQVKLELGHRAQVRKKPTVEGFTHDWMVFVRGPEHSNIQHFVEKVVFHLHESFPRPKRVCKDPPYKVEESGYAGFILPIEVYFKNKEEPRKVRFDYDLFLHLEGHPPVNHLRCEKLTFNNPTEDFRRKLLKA
The experiment in a line: ITC. (In ITC the heat of successive injections is recorded.)

Experiment [2] has as its target T2, AF9 YEATS domain F59Y (human, UniProt P42568 1-138, F59Y).
T2 sequence (looked up): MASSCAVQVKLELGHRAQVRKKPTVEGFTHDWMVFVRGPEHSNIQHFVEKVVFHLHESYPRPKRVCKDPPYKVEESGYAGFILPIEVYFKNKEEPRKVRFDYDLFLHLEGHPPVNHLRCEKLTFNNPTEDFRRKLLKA
Description: ITC.

The target in experiment [3] is T3, AF9-F28R YEATS domain (1-138) (human, UniProt P42568 1-138, F28R).
T3 sequence (looked up): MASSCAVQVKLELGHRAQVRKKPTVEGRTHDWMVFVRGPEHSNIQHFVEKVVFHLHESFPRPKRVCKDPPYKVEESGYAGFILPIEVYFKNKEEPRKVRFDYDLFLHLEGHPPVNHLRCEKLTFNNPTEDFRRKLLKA
The experiment in a line: crystal structure.

One may read the Kd as a measure of binding affinity in units of concentration. Lower therefore signals higher affinity. H3K9ac peptide (ITC) came in with a Kd in experiment [1] of 4.6 µM. H3K18la peptide had a Kd in experiment [1] of 172 µM. This Kd is about 37-fold higher than that of the molecule before. In experiment [1], ARTKQTARKS (lactyl-lysine (L-lactylation) at K9) [H3K9la peptide (ITC)] came in with a Kd of 74.4 µM. For the same molecule, in experiment [2], the “fold reduction of affinity against WT AF9 YEATS” value came to 2 fold. On to ARTKQTARKS (peptide, UniProt P68431 2-11, looked up, lactyl-lysine (L-lactylation) at K9) [H3_(1-10)K9la peptide], for which the binding result in experiment [3] is listed as “binds”.

These data come from doi:10.1101/2025.06.18.660498 (bioRxiv, 2025).
